This is an account of results in PMC8006934 (2021).

Substitutions are numbered along the chain they refer to.

Assay in all cases: SPR
Background: SPR reads the build-up and loss of mass on a sensor chip optically.

For experiment [1], the target named is T1, FcγRIIa-R131, human, C-terminally biotinylated (human, biotin, C-terminal).
T1 chain: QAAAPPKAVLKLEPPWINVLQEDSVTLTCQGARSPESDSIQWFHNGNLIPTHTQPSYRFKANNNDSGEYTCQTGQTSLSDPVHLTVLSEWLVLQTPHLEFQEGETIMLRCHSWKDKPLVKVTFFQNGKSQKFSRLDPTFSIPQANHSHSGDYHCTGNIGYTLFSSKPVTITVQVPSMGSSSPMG

The target of experiment [2] is FcγRIIIa-F158, human, C-terminally biotinylated (human, UniProt P08637 17-208, biotin, C-terminal).
Sequence of FcγRIIIa-F158, human, C-terminally biotinylated (P08637 17-208): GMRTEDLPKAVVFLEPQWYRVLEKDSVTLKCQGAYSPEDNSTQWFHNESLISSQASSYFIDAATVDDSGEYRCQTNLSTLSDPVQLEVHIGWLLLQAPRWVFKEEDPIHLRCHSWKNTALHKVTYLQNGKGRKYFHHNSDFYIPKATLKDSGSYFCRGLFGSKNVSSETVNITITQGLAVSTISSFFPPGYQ
Experiment [3] addresses T2, FcγRIa, human, C-terminally biotinylated (human, UniProt P12314 16-292, biotin, C-terminal).
T2 chain: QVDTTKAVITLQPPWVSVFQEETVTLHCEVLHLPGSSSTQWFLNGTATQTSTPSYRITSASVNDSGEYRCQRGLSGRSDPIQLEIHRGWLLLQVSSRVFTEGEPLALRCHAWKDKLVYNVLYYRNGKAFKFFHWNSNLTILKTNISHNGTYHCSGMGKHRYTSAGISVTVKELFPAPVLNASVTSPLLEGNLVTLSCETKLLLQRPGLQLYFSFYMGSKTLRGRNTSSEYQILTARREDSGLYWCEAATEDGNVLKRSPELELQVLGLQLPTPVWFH

Experiment [4] concerns the target FcγRIIIa-V158, human, C-terminally biotinylated (human, UniProt P08637 17-208, p.176Val (V158), biotin, C-terminal).
In experiment [5] the target is T3, FcγRIIa-H131, human, C-terminally biotinylated (human, UniProt P12318 34-217, biotin, C-terminal).
T3 chain: T1 chain with R134H

Sequence of FcγRIIIa-V158, human, C-terminally biotinylated (P08637 other isoform, or with tags, fused parts or gaps p.176Val (V158)): as the sequence (P08637 17-208) above, with F160V counted along it

B1: C-reactive protein (native CRP from human fluid) (natural protein)
chain: QTDMSRKAFVFPKESDTSYVSLKAPLTKPLKAFTVCLHFYTELSSTRGYSIFSYATKRQDNEILIFWSKDIGYSFTVGGSEILFEVPEVTVAPVHICTSWESASGIVEFWVDGKPRVRKSLKKGYTVGAEASIILGQEQDSFGGNFEGSQSLVGDIGNVNMWDFVLSPDEINTIYLGGPFSPNVLNWRALKYEVQGEVFTKPQLWP
As for B1, the dissociation constant (Kd) came to 4.6 µM in experiment [1]; 4.9 µM in experiment [2]; 3.4 µM in experiment [3]; 4.4 µM in experiment [4]; 4.5 µM in experiment [5].

A word on the Kd: it is the concentration at which binding is half-saturated.
